Data: article PMC9482650, “Quantitative fragmentomics allow affinity mapping of interactomes” (Nature Communications, 2022)

Columns and labels:
Test in all cases: holdup assay
Design in all cases: key: below the threshold = too weak to quantify, mostly under pKd 3.1 to 4
Conditions in all cases: plain residues with an end cap or a label only (N-terminal biotin on a linker: ado-ado)
[1] = molecular target: T1, APBA3_1, O96018
T1 sequence (O96018 389-490, limits assumed, looked up): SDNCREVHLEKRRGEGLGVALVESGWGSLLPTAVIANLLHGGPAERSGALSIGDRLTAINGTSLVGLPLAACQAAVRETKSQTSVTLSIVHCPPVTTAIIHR

[2] = molecular target: T2, CARD11, Q9BXL7
T2 sequence (Q9BXL7 662-765, limits assumed, looked up): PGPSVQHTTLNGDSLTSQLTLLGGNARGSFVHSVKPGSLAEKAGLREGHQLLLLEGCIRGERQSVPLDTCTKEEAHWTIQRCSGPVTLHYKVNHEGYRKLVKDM

[3] = molecular target: T3, DFNB31_1, Q9P202
T3 sequence (Q9P202 135-233, limits assumed, looked up): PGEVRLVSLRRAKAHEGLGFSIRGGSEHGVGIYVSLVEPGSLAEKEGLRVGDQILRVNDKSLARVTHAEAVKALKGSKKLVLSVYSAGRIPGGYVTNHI

[4] = molecular target: DLG2_2, Q15700
[5] = molecular target: T4, DVL3, Q92997
T4 sequence (Q92997 244-331, limits assumed, looked up): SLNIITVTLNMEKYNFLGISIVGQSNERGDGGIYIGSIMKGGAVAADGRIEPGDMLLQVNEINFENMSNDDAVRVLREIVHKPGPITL

[6] = molecular target: GORASP1, Q9BQQ3
[7] = molecular target: GORASP2, Q9H8Y8
[8] = molecular target: T5, GRIP1_2, Q9Y3R0
T5 sequence (Q9Y3R0 145-248, limits assumed, looked up): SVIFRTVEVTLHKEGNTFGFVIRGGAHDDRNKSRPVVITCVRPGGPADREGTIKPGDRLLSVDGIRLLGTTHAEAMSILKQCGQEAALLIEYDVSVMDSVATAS

[9] = molecular target: GRIP2_3, Q9C0E4
[10] = molecular target: GRIP2_6, Q9C0E4
[11] = molecular target: GRIP2_7, Q9C0E4
[12] = molecular target: T6, HTRA3, P83110
T6 sequence (P83110 354-453, limits assumed, looked up): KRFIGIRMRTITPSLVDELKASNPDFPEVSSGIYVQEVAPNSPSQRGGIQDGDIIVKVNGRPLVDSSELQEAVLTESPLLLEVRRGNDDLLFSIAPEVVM

[13] = molecular target: Inadl_1, Q8NI35
[14] = molecular target: Inadl_4, Q8NI35
[15] = molecular target: Inadl_9, Q8NI35
[16] = molecular target: LAP2, Q96RT1
[17] = molecular target: T7, LIN7A, O14910
T7 sequence (O14910 103-200, limits assumed, looked up): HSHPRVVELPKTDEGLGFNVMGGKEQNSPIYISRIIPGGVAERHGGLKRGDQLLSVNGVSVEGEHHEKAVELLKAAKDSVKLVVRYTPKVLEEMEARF

[18] = molecular target: T8, LNX2_2, Q8N448
T8 sequence (Q8N448 334-432, limits assumed, looked up): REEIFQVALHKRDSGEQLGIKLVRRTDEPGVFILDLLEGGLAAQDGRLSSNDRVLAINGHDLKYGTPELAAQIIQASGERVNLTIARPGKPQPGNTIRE

[19] = molecular target: MAGI1_1, Q96QZ7
[20] = molecular target: MAGI2_5, Q86UL8
[21] = molecular target: MAGI2_6, Q86UL8
[22] = molecular target: T9, MPDZ_12, O75970
T9 sequence (O75970 1857-1958, limits assumed, looked up): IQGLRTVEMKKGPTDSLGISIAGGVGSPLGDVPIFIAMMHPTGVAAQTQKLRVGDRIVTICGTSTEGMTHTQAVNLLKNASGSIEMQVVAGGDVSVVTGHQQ

[23] = molecular target: NHERF4_4, Q86UT5
[24] = molecular target: T10, PDZD7_3, Q9H5P4
T10 sequence (Q9H5P4 857-944, limits assumed, looked up): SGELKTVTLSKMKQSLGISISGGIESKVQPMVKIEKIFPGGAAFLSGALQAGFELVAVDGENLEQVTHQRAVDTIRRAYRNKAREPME

[25] = molecular target: T11, PDZRN3_1, Q9UPQ7
T11 sequence (Q9UPQ7 244-349, limits assumed, looked up): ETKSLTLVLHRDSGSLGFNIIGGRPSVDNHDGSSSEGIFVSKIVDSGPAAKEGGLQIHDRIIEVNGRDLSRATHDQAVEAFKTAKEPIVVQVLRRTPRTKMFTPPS

[26] = molecular target: SCRIB_3, Q14160
[27] = molecular target: TJP2_1, Q9UDY2
Chain of TJP2_1, Q9UDY2 (Q9UDY2 24-128): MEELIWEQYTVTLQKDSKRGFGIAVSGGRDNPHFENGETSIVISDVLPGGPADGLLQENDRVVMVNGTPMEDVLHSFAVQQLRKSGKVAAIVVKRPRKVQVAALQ

Chain of GRIP2_3, Q9C0E4 (Q9C0E4 238-339): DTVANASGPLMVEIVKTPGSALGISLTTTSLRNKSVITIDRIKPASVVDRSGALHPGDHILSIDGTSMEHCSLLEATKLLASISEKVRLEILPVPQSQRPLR
Chain of DLG2_2, Q15700 (Q15700 189-283): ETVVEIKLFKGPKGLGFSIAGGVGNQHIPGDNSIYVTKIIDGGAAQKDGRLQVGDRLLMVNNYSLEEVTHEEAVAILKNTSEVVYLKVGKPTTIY
Chain of GRIP2_6, Q9C0E4 (Q9C0E4 648-740): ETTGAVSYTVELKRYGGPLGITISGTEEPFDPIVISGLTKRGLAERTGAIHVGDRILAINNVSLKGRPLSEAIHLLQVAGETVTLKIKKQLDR
Chain of SCRIB_3, Q14160 (Q14160 999-1103): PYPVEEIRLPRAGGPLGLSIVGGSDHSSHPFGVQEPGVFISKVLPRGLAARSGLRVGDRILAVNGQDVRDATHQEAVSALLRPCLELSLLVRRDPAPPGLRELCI
Chain of NHERF4_4, Q86UT5 (Q86UT5 464-550): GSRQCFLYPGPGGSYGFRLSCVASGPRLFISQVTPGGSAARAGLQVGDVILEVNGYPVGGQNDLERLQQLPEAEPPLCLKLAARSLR
Chain of MAGI2_6, Q86UL8 (Q86UL8 1141-1229): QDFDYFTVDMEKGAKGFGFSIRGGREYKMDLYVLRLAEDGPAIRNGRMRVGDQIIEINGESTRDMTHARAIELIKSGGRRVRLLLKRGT
Chain of Inadl_4, Q8NI35 (Q8NI35 547-651): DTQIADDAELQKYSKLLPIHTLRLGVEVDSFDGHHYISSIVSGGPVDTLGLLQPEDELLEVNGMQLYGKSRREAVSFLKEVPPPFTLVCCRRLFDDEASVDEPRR
Chain of LAP2, Q96RT1 (Q96RT1 other isoform, or with tags, fused parts or gaps): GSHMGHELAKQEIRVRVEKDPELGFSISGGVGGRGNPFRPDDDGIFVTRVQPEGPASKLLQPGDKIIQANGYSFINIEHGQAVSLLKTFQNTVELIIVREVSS
Chain of MAGI1_1, Q96QZ7 (Q96QZ7 1-106): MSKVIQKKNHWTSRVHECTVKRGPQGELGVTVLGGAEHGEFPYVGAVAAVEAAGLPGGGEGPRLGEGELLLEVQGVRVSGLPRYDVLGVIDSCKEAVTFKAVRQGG
Chain of MAGI2_5, Q86UL8 (Q86UL8 915-1017): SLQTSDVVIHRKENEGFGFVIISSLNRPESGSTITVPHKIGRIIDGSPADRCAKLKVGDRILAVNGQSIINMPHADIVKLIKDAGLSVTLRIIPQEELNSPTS
Chain of GRIP2_7, Q9C0E4 (Q9C0E4 934-1023): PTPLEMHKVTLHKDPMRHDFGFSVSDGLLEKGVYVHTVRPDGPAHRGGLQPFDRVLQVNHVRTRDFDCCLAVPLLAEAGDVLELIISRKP
Chain of Inadl_9, Q8NI35 (Q8NI35 1530-1615): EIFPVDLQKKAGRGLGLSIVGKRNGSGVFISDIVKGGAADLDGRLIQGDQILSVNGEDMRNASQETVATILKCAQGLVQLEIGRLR
Chain of GORASP1, Q9BQQ3 (Q9BQQ3 1-208): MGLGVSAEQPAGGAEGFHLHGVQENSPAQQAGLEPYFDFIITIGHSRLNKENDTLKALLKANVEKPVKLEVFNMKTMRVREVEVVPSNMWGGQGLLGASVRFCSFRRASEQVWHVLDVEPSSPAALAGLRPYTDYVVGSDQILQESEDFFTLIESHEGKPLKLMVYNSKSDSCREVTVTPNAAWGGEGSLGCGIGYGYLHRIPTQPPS
Chain of Inadl_1, Q8NI35 (Q8NI35 113-229): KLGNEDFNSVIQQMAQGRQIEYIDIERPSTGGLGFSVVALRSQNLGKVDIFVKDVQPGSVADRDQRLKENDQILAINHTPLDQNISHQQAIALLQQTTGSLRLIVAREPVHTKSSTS

B1: UNC93A, Q86WB7 (peptide)
chain: AEDEEIQTKM
In the case of B1, the pKd [1] is reported as “below the threshold”, the pKd [2] is reported as “below the threshold” and the pKd [3] is reported as “below the threshold”. The pKd [4] was “below the threshold”, the pKd [5] was “below the threshold” and the pKd [6] was “below the threshold”. For the same binder, the pKd [7] was “below the threshold”, the pKd [8] was “below the threshold” and the pKd [9] was “below the threshold”. For the same binder, the pKd [10] was “below the threshold”, the pKd [11] was “below the threshold” and the pKd [12] was “below the threshold”. The pKd [13] was “below the threshold”, the pKd [14] was “below the threshold” and the pKd [15] was “below the threshold”. The pKd [16] was “below the threshold”, the pKd [17] was “below the threshold” and the pKd [18] was “below the threshold”. For the same binder, the pKd [19] was “below the threshold”, the pKd [20] was “below the threshold” and the pKd [21] was “below the threshold”. For the same binder, the pKd [22] was “below the threshold”, the pKd [23] was “below the threshold” and the pKd [24] was “below the threshold”. For the same binder, the pKd [25] was “below the threshold”, the pKd [26] was “below the threshold” and the pKd [27] was “below the threshold”.

B2: YAP1, P46937 (peptide)
chain: LDKESFLTWL
In the case of B2, the pKd [1] is reported as “below the threshold”, the pKd [2] is reported as 3.64 and the pKd [3] is reported as 3.77. For the same binder, the pKd [4] was “below the threshold”, the pKd [5] was 4.64 and the pKd [6] was 5.11. The pKd [7] was 4.84, the pKd [8] was 3.51 and the pKd [9] was “below the threshold”. The pKd [10] was “below the threshold”, the pKd [11] was 4.05 and the pKd [12] was 5.5. For the same binder, the pKd [13] was 4.54, the pKd [14] was “below the threshold” and the pKd [15] was 3.99. The pKd [16] was 4.2, the pKd [17] was “below the threshold” and the pKd [18] was 4.38. The pKd [19] was 3.65, the pKd [20] was 4.18 and the pKd [21] was 4.82. For the same binder, the pKd [22] was 4.98, the pKd [23] was 4.16 and the pKd [24] was 4.92. For the same binder, the pKd [25] was 3.73, the pKd [26] was 5.02 and the pKd [27] was 5.19.

B3: NECTIN3, Q9NQS3 (peptide)
chain: SVISRREWYV
With B3 the pKd [1] was “below the threshold”, the pKd [2] was “below the threshold” and the pKd [3] was “below the threshold”. The pKd [4] was 3.49, the pKd [5] was 4.69 and the pKd [6] was 4.63. For the same binder, the pKd [7] was 5.1, the pKd [8] was “below the threshold” and the pKd [9] was “below the threshold”. It also gave a pKd [10] of 4.81, a pKd [11] of 5.47 and a pKd [12] of 4.99. For the same binder, the pKd [13] was 4.25, the pKd [14] was “below the threshold” and the pKd [15] was 4.51. The pKd [16] was 3.59, the pKd [17] was 3.58 and the pKd [18] was 5.15. The pKd [19] was “below the threshold”, the pKd [20] was “below the threshold” and the pKd [21] was 3.76. The pKd [22] was “below the threshold”, the pKd [23] was 4.07 and the pKd [24] was “below the threshold”. The pKd [25] was “below the threshold”, the pKd [26] was 3.72 and the pKd [27] was 4.63.

B4: ADAM17, P78536 (peptide)
chain: NRVDSKETEC
With B4 the pKd [1] was “below the threshold”, the pKd [2] was “below the threshold” and the pKd [3] was 3.72. For the same binder, the pKd [4] was 4.25, the pKd [5] was “below the threshold” and the pKd [6] was “below the threshold”. The pKd [7] was “below the threshold”, the pKd [8] was 3.59 and the pKd [9] was “below the threshold”. For the same binder, the pKd [10] was “below the threshold”, the pKd [11] was “below the threshold” and the pKd [12] was 3.65. The pKd [13] was “below the threshold”, the pKd [14] was “below the threshold” and the pKd [15] was “below the threshold”. For the same binder, the pKd [16] was “below the threshold”, the pKd [17] was “below the threshold” and the pKd [18] was 3.5. For the same binder, the pKd [19] was 3.53, the pKd [20] was 3.92 and the pKd [21] was 4.06. For the same binder, the pKd [22] was “below the threshold”, the pKd [23] was “below the threshold” and the pKd [24] was “below the threshold”. For the same binder, the pKd [25] was 3.57, the pKd [26] was 4.58 and the pKd [27] was “below the threshold”.
